Laboratory results from patent publication EP0835662A2.

What was measured:
[1] = target: receptor with a moderately high affinity for Substance P on primary tumor cells of human colon adenocarcinoma (human); assay: 125I-Substance P receptor-ligand assay on cells, Scatchard (LIGAND); culture PTC-1
[2] = target: receptor with a moderately high affinity for Substance P on primary tumor cells of human colon adenocarcinoma (human); assay: 125I-Substance P receptor-ligand assay on cells, Scatchard (LIGAND); culture PTC-2
[3] = target: receptor with a moderately high affinity for Substance P on primary tumor cells of human colon adenocarcinoma (human); assay: 125I-Substance P receptor-ligand assay on cells, Scatchard (LIGAND); culture PTC-3
[4] = target: receptor with a moderately high affinity for Substance P on primary tumor cells of human colon adenocarcinoma (human); assay: 125I-Substance P receptor-ligand assay on cells, Scatchard (LIGAND); culture PTC-4
[5] = target: receptor with a moderately high affinity for Substance P on primary tumor cells of human colon adenocarcinoma (human); assay: 125I-Substance P receptor-ligand assay on cells, Scatchard (LIGAND); culture PTC-5
[6] = target: receptor with a moderately high affinity for Substance P on primary tumor cells of human colon adenocarcinoma (human); assay: 125I-Substance P receptor-ligand assay on cells, Scatchard (LIGAND); culture PTC-6
[7] = target: receptor with a moderately high affinity for Substance P on primary tumor cells of human colon adenocarcinoma (human); assay: 125I-Substance P receptor-ligand assay on cells, Scatchard (LIGAND); culture PTC-7
[8] = target: receptor with a moderately high affinity for Substance P on primary tumor cells of human colon adenocarcinoma (human); assay: 125I-Substance P receptor-ligand assay on cells, Scatchard (LIGAND); culture PTC-8
[9] = target: high-affinity receptor for VIP on primary tumor cells of human colon adenocarcinoma (human); assay: 125I-VIP receptor-ligand assay on cells, Scatchard (LIGAND); culture PTC-1
[10] = target: receptor with a moderately high affinity for VIP on primary tumor cells of human colon adenocarcinoma (human); assay: as above
[11] = target: high-affinity receptor for VIP on primary tumor cells of human colon adenocarcinoma (human); assay: 125I-VIP receptor-ligand assay on cells, Scatchard (LIGAND); culture PTC-2
[12] = target: receptor with a moderately high affinity for VIP on primary tumor cells of human colon adenocarcinoma (human); assay: as above
[13] = target: high-affinity receptor for VIP on primary tumor cells of human colon adenocarcinoma (human); assay: 125I-VIP receptor-ligand assay on cells, Scatchard (LIGAND); culture PTC-3
[14] = target: receptor with a moderately high affinity for VIP on primary tumor cells of human colon adenocarcinoma (human); assay: as above
[15] = target: high-affinity receptor for VIP on primary tumor cells of human colon adenocarcinoma (human); assay: 125I-VIP receptor-ligand assay on cells, Scatchard (LIGAND); culture PTC-4
[16] = target: receptor with a moderately high affinity for VIP on primary tumor cells of human colon adenocarcinoma (human); assay: as above
[17] = target: high-affinity receptor for VIP on primary tumor cells of human colon adenocarcinoma (human); assay: 125I-VIP receptor-ligand assay on cells, Scatchard (LIGAND); culture PTC-5
[18] = target: receptor with a moderately high affinity for VIP on primary tumor cells of human colon adenocarcinoma (human); assay: as above
[19] = target: high-affinity receptor for VIP on primary tumor cells of human colon adenocarcinoma (human); assay: 125I-VIP receptor-ligand assay on cells, Scatchard (LIGAND); culture PTC-6
[20] = target: receptor with a moderately high affinity for VIP on primary tumor cells of human colon adenocarcinoma (human); assay: as above
[21] = target: high-affinity receptor for VIP on primary tumor cells of human colon adenocarcinoma (human); assay: 125I-VIP receptor-ligand assay on cells, Scatchard (LIGAND); culture PTC-7
[22] = target: receptor with a moderately high affinity for VIP on primary tumor cells of human colon adenocarcinoma (human); assay: as above
[23] = target: high-affinity receptor for VIP on primary tumor cells of human colon adenocarcinoma (human); assay: 125I-VIP receptor-ligand assay on cells, Scatchard (LIGAND); culture PTC-8
[24] = target: receptor with a moderately high affinity for VIP on primary tumor cells of human colon adenocarcinoma (human); assay: as above
[25] = target: high-affinity receptor for somatostatin on primary tumor cells of human colon adenocarcinoma (human); assay: 125I-somatostatin receptor-ligand assay on cells, Scatchard (LIGAND); culture PTC-1
[26] = target: receptor with a moderately high affinity for somatostatin on primary tumor cells of human colon adenocarcinoma (human); assay: as above
[27] = target: high-affinity receptor for somatostatin on primary tumor cells of human colon adenocarcinoma (human); assay: 125I-somatostatin receptor-ligand assay on cells, Scatchard (LIGAND); culture PTC-2
[28] = target: receptor with a moderately high affinity for somatostatin on primary tumor cells of human colon adenocarcinoma (human); assay: as above
[29] = target: high-affinity receptor for somatostatin on primary tumor cells of human colon adenocarcinoma (human); assay: 125I-somatostatin receptor-ligand assay on cells, Scatchard (LIGAND); culture PTC-3
[30] = target: receptor with a moderately high affinity for somatostatin on primary tumor cells of human colon adenocarcinoma (human); assay: as above
[31] = target: high-affinity receptor for somatostatin on primary tumor cells of human colon adenocarcinoma (human); assay: 125I-somatostatin receptor-ligand assay on cells, Scatchard (LIGAND); culture PTC-4
[32] = target: receptor with a moderately high affinity for somatostatin on primary tumor cells of human colon adenocarcinoma (human); assay: as above
[33] = target: high-affinity receptor for somatostatin on primary tumor cells of human colon adenocarcinoma (human); assay: 125I-somatostatin receptor-ligand assay on cells, Scatchard (LIGAND); culture PTC-5
[34] = target: receptor with a moderately high affinity for somatostatin on primary tumor cells of human colon adenocarcinoma (human); assay: as above
[35] = target: high-affinity receptor for somatostatin on primary tumor cells of human colon adenocarcinoma (human); assay: 125I-somatostatin receptor-ligand assay on cells, Scatchard (LIGAND); culture PTC-6
[36] = target: receptor with a moderately high affinity for somatostatin on primary tumor cells of human colon adenocarcinoma (human); assay: as above
[37] = target: high-affinity receptor for somatostatin on primary tumor cells of human colon adenocarcinoma (human); assay: 125I-somatostatin receptor-ligand assay on cells, Scatchard (LIGAND); culture PTC-7
[38] = target: receptor with a moderately high affinity for somatostatin on primary tumor cells of human colon adenocarcinoma (human); assay: as above
[39] = target: high-affinity receptor for somatostatin on primary tumor cells of human colon adenocarcinoma (human); assay: 125I-somatostatin receptor-ligand assay on cells, Scatchard (LIGAND); culture PTC-8
[40] = target: receptor with a moderately high affinity for somatostatin on primary tumor cells of human colon adenocarcinoma (human); assay: as above
[41] = target: high-affinity receptor for bombesin on primary tumor cells of human colon adenocarcinoma (human); assay: 125I-bombesin receptor-ligand assay on cells, Scatchard (LIGAND); culture PTC-1
[42] = target: high-affinity receptor for bombesin on primary tumor cells of human colon adenocarcinoma (human); assay: 125I-bombesin receptor-ligand assay on cells, Scatchard (LIGAND); culture PTC-2
[43] = target: high-affinity receptor for bombesin on primary tumor cells of human colon adenocarcinoma (human); assay: 125I-bombesin receptor-ligand assay on cells, Scatchard (LIGAND); culture PTC-3
[44] = target: high-affinity receptor for bombesin on primary tumor cells of human colon adenocarcinoma (human); assay: 125I-bombesin receptor-ligand assay on cells, Scatchard (LIGAND); culture PTC-4
[45] = target: high-affinity receptor for bombesin on primary tumor cells of human colon adenocarcinoma (human); assay: 125I-bombesin receptor-ligand assay on cells, Scatchard (LIGAND); culture PTC-5
[46] = target: high-affinity receptor for bombesin on primary tumor cells of human colon adenocarcinoma (human); assay: 125I-bombesin receptor-ligand assay on cells, Scatchard (LIGAND); culture PTC-6
[47] = target: high-affinity receptor for bombesin on primary tumor cells of human colon adenocarcinoma (human); assay: 125I-bombesin receptor-ligand assay on cells, Scatchard (LIGAND); culture PTC-7
[48] = target: high-affinity receptor for bombesin on primary tumor cells of human colon adenocarcinoma (human); assay: 125I-bombesin receptor-ligand assay on cells, Scatchard (LIGAND); culture PTC-8

Substance: Substance P (from UniProt P20366 58-68) (peptide)
- Kd [1]: 154 nM
- R(M/L) receptor number [1]: 1.85e-08 M/L
- Kd [2]: 172 nM
- R(M/L) receptor number [2]: 1.71e-08 M/L
- Kd [3]: 134 nM
- R(M/L) receptor number [3]: 1.49e-08 M/L
- Kd [4]: 154 nM
- R(M/L) receptor number [4]: 1.66e-08 M/L
- Kd [5]: 21 nM
- R(M/L) receptor number [5]: 6.2e-09 M/L
- Kd [6]: 234 nM
- R(M/L) receptor number [6]: 2.95e-08 M/L
- Kd [7]: 26.2 nM
- R(M/L) receptor number [7]: 7.48e-09 M/L
- Kd [8]: 186 nM
- R(M/L) receptor number [8]: 1.32e-08 M/L

Substance: vasoactive intestinal peptide (VIP) (from UniProt P01282 125-152)
- Kd [9]: 1.04 nM
- R(M/L) receptor number [9]: 4.83e-11 M/L
- Kd [10]: 633 nM
- R(M/L) receptor number [10]: 1.78e-08 M/L
- Kd [11]: 1.45 nM
- R(M/L) receptor number [11]: 6.23e-11 M/L
- Kd [12]: 423 nM
- R(M/L) receptor number [12]: 1.03e-08 M/L
- Kd [13]: 6.35 nM
- R(M/L) receptor number [13]: 2.45e-10 M/L
- Kd [14]: 1510 nM
- R(M/L) receptor number [14]: 2.93e-08 M/L
- Kd [15]: 11 nM
- R(M/L) receptor number [15]: 2.75e-10 M/L
- Kd [16]: 945 nM
- R(M/L) receptor number [16]: 5.03e-08 M/L
- Kd [17]: 19.5 nM
- R(M/L) receptor number [17]: 5.29e-10 M/L
- Kd [18]: 3510 nM
- R(M/L) receptor number [18]: 8.72e-08 M/L
- Kd [19]: 4.41 nM
- R(M/L) receptor number [19]: 1.05e-10 M/L
- Kd [20]: 1880 nM
- R(M/L) receptor number [20]: 3.21e-08 M/L
- Kd [21]: 1.49 nM
- R(M/L) receptor number [21]: 6.12e-11 M/L
- Kd [22]: 555 nM
- R(M/L) receptor number [22]: 9.37e-09 M/L
- Kd [23]: 1.78 nM
- R(M/L) receptor number [23]: 1.5e-10 M/L
- Kd [24]: 8420 nM
- R(M/L) receptor number [24]: 8.49e-09 M/L

Substance: somatostatin (from UniProt P61278 103-116) (peptide)
- Kd [25]: 0.323 nM
- R(M/L) receptor number [25]: 6.01e-11 M/L
- Kd [26]: 93.7 nM
- R(M/L) receptor number [26]: 4.41e-09 M/L
- Kd [27]: 0.17 nM
- R(M/L) receptor number [27]: 8.99e-11 M/L
- Kd [28]: 63.5 nM
- R(M/L) receptor number [28]: 2.24e-09 M/L
- Kd [29]: 1.15 nM
- R(M/L) receptor number [29]: 1.06e-10 M/L
- Kd [30]: 134 nM
- R(M/L) receptor number [30]: 5.09e-09 M/L
- Kd [31]: 0.0865 nM
- R(M/L) receptor number [31]: 4.66e-11 M/L
- Kd [32]: 56.4 nM
- R(M/L) receptor number [32]: 2.75e-09 M/L
- Kd [33]: 0.378 nM
- R(M/L) receptor number [33]: 5.82e-11 M/L
- Kd [34]: 15.4 nM
- R(M/L) receptor number [34]: 1.24e-09 M/L
- Kd [35]: 0.545 nM
- R(M/L) receptor number [35]: 6.85e-11 M/L
- R(M/L) receptor number [36]: 1.16e-09 M/L
- Kd [37]: 1.11 nM
- R(M/L) receptor number [37]: 9.81e-11 M/L
- Kd [38]: 128 nM
- R(M/L) receptor number [38]: 3.89e-09 M/L
- Kd [39]: 0.964 nM
- R(M/L) receptor number [39]: 1.74e-10 M/L
- Kd [40]: 99.2 nM
- R(M/L) receptor number [40]: 6.59e-09 M/L

Substance: bombesin (peptide)
- Kd [41]: 0.439 nM
- R(M/L) receptor number [41]: 2.24e-10 M/L
- Kd [42]: 0.593 nM
- R(M/L) receptor number [42]: 3.22e-10 M/L
- Kd [43]: 0.569 nM
- R(M/L) receptor number [43]: 2.97e-10 M/L
- Kd [44]: 0.568 nM
- R(M/L) receptor number [44]: 2.89e-10 M/L
- Kd [45]: 0.462 nM
- R(M/L) receptor number [45]: 3.35e-10 M/L
- Kd [46]: 0.485 nM
- R(M/L) receptor number [46]: 2.24e-10 M/L
- Kd [47]: 0.67 nM
- R(M/L) receptor number [47]: 2.55e-10 M/L
- Kd [48]: 0.883 nM
- R(M/L) receptor number [48]: 2.85e-10 M/L
